Assay results as given in patent US10677782B2, “Methods of determining interferon having direct inhibitory effects on tumors and uses thereof” (SUPERLAB FAR EAST LIMITED, priority 2013, dated 2020).

Legend:
A549 tumor cells = assay: Cell viability over 1-6 days, MTT assay; type: cell-based, human; conditions: 10 μg/ml
Experimental: The cell survival rate was evaluated in a standard MTT assay (3-(4,5-dimethylthiazol-2-yl)-2,5-diphenyltetrazolium bromide assay, Sigma, St. Louis, Mo.). For the assay, about 20 μl MTT (at […]) was added to each well. The cells were incubated at 37° C. for 4 hr. After that, the supernatant of each well was drawn off carefully and then an equal volume (150 microliter) of dimethyl sulfoxide (DMSO) was added to each well and mixed thoroughly on a shaker for 15 min. The absorbance from the plates was read at 595 nm with a Thermo Scientific Microplate Reader (Thermo Fisher Scientific Inc., Lowell, Mass.). The relative cell viability was calculated as follows: Cell viability=(Treated group(OD595) minus blank(OD595))/(Control group(OD595) minus blank(OD595))×100%.

[1] = Tolerability and body weight of tumor-bearing mice, Example 1; type: in vivo, BALB/cA nu/nu mice; conditions: 0.05-0.15 mg/mouse i.t. every other day, 21 days
Source text: The animals used were 4-6 weeks old male BALB/cA nu/nu mice, weighing about 23±2 g, obtained from the Shanghai Institute of Materia Medica (Shanghai, P.R. China). The study protocol was reviewed by the Committee on the Use and Care of Animals of Shanghai Institute of Materia Medica for compliance with regulations, and Committee approval was obtained prior to study initiation. Wherever possible, procedures used in this study were designed to avoid or minimize discomfort, distress, and pain to the animals. Animals that experience severe or chronic pain or distress that could not be relieved were painlessly euthanized, in accordance to regulations. Animals were housed 6 to a cage. They were ear-marked with ear hole punch identification. The room temperature was maintained at 25° C.±1° C. Lighting was set at 12 hr on and 12 hr off. Food was provided ad libitum. City tap water, filtered with a 5 micrometer (μm) filter, was provided to the animals ad libitum via water bottles.
Animals were assigned to treatment groups randomly. Initially, all animals were placed in one large animal cage. For assignment to the study, they were later separately housed, with 6 animals per cage per treatment group. […] Tumor growth was monitored by measuring the length and width of each tumor twice a week during the course of the study. […]

SW620 tumor cells = assay: Cell viability over 1-6 days, MTT assay; type: cell-based, human; conditions: 10 μg/ml
Experimental: The cell survival rate was evaluated in a standard MTT assay (3-(4,5-dimethylthiazol-2-yl)-2,5-diphenyltetrazolium bromide assay, Sigma, St. Louis, Mo.). For the assay, about 20 μl MTT (at 4 mcg/ml) was added to each well. The cells were incubated at 37° C. for 4 hr. After that, the supernatant of each well was drawn off carefully and then an equal volume (150 microliter) of dimethyl sulfoxide (DMSO) was added to each well and mixed thoroughly on a shaker for 15 min. The absorbance from the plates was read at 595 nm with a Thermo Scientific Microplate Reader (Thermo Fisher Scientific Inc., Lowell, Mass.). The relative cell viability was calculated as follows: Cell viability=(Treated group(OD595) minus blank(OD595))/(Control group(OD595) minus blank(OD595))×100%.

[2] = test system: beta-catenin protein level in SW480 cells; assay: Beta-catenin protein level by Western Blot; type: cell-based, human; conditions: 10 mcg/ml, 72 hours
Experimental: (§1) Cancer cells, A549 and Sw480, were cultured to about 85% confluency and put into 6 well plates. The cells were treated with either 10 mcg/ml IFNα-2b or rSIFN-co or left untreated as control (Mock) for 24 hr, 48 hr, or 72 hr, respectively. After treatment, the cells were harvested for Western Blot to detect the beta-catenin protein level, using its specific antibody, with GAPDH as endogenous loading control. The experiment was conducted in triplicate.
(§2) To determine the expression of various proteins, cells were harvested from the plates and total cellular protein were extracted using extraction reagents (Cat #: P0013) according to the manufacturer's protocol (Beyotime, China). The total protein concentration was determined by the Lowry Protein Assay kit (Bio-Rad, USA). […] The membranes were blocked with 5% skimmed milk, bovine serum albumin, 10 mmol/L Tris-HCl at pH 8.0, 150 mmol/L NaCl, and 0.05% Tween 20 overnight at 4° C. The blocked membranes were then incubated with primary antibodies (1:1000 dilutions), followed by secondary HRP-conjugated antibodies. Blots were visualized using Luminescence/Fluorescence Imaging LAS4000 System (GE Healthcare Life Sciences, USA) with super signal west pico chemiluminescent substrate kit (Thermo scientific, USA).
(§3) For this determination, the primary antibodies used were mouse monoclonal anti-beta-catenin antibodies (1:1000; Santa Cruz Technology, Santa Cruz, Calif.) and mouse monoclonal anti-GAPDH antibodies (1:2000) (Kangwei Biotechnology, China). Anti-mouse HRP-conjugated secondary antibodies (Santa Cruz Technology, Santa Cruz, Calif.) were used at concentrations of 1:2000.

[3] = test system: beta-catenin protein level in A549 cells; assay: Beta-catenin protein level by Western Blot; type: cell-based, human; conditions: 10 mcg/ml
Experimental: as §1, §2, §3

[4] = test system: procaspase-3, cleaved caspase-3, procaspase-8, cleaved caspase-8, PARP in A549 cells; assay: Apoptosis-related molecular markers by Western Blot; type: cell-based, human; conditions: 24 hr or 48 hr; interferons at 10 mcg/ml
Source text: (§4) Thereafter, apoptosis-related molecular markers were monitored by Western Blot. The primary antibodies used were mouse monoclonal anti-beta-tubulin (1:2000, Cat #: CW0098A) and mouse monoclonal anti-GAPDH (1:2000, Cat #: CW0100A) (Kangwei Biotechnology, China); mouse monoclonal anti-PARP (1:1000, Cat #: se-2007, Santa Cruz Biotechnology, Inc.); rabbit monoclonal anti-procaspase 3 (1:1000, Cat #: 9665), and rabbit polyclonal anti-cleaved caspase 3 (1:1000, Cat #: 9661) (Cell Signaling Technology, USA); goat polyclonal anti-procaspase 8 (1:1000, Cat #: sc-6136, Santa Cruz Biotechnology, Inc); rabbit monoclonal anti-cleaved caspase 8 (1:1000, Cat #: 9496) (Cell Signaling Technology, USA).

[5] = test system: procaspase-3, cleaved caspase-3, procaspase-8, cleaved caspase-8, PARP in SW620 cells; assay: as above; type: cell-based, human; conditions: 24 hr or 48 hr; interferons at 10 mcg/ml
Source text: as §4

[6] = test system: Human Colon Cancer HT-29 Xenografts; assay: Human colon cancer HT-29 xenografts in nude mice (Example 3); type: in vivo; conditions: for TV (mm^3, mean ± SD) (D0): day 0, start of treatment; for TV (mm^3, mean ± SD) (D28): day 28
Experimental: Before commencement of this study, the xenografts were passaged twice in nude mice. Under sterile conditions, well-grown tumors were cut into 1.5 mm^3 fragments and one such fragment was injected by trocar needle into the right flank of each study animal. […] Individual tumor size (length and width) was measured twice per week with microcalipers. Tumor volume (V) was calculated using the formula: V=(length×width^2)/2. Individual relative tumor volume (RTV) was calculated using the formula: RTV=Vt/V0, where Vt is the tumor volume on the day of measurement and V0 is the tumor volume on the day of first treatment. Therapeutic effect of the test article or control article was expressed in terms of TIC (%), using the formula: TIC (%) (mean RTV of the treated group/mean RTV of the control group)×100%; and in terms of % Inhibition, using the formula: % Inhibition=100%−T/C %.
Then, 1.5 mm^3 fragments were prepared for s.c. implantation into the test animals.

[7] = Tolerability and body weight of tumor-bearing mice, Example 2; type: in vivo, BALB/cA nu/nu mice
Experimental: Animals were assigned to treatment groups randomly. Initially, all animals were placed in one large animal cage. For assignment to the study, they were later separately housed, with 6 animals per cage per treatment group. Groups 1 and 2 are Control groups in which the animals were each administered the vehicle every other day after the first treatment. […] The animals in Groups 4, 5 and 6 were each given rSIFN-co every other day after the first treatment at 0.15 mg/mouse (Group 4) or 0.10 mg/mouse (Group 5) or 0.05 mg/mouse (Group 6), respectively. Tumor growth was monitored by measuring the length and width of each tumor twice a week during the course of the study. Each animal was also weighed twice a week during the course of the study.
The study was conducted as in Example 1 except as specifically indicated otherwise. Human cervical cancer xenografts were first established and prepared in a similar manner as in Example 1, by inoculating 5×10^6 Hela cells subcutaneously in nude mice and passaging the well-grown xenografts twice in nude mice. Then 1.5 mm^3 fragments were prepared for s.c. implantation into the animals. The body weight of the animals averaged 19±2 g at dose initiation In contrast to Example 1, the animals used were all female.

[8] = 0.05 mg/mouse i.t. every other day
[9] = 0.10 mg/mouse i.t. every other day
[10] = 0.15 mg/mouse i.t. every other day

B1: rSIFN-co: Recombinant super-compound interferon; amino acid sequence SEQ ID NO: 1 (same as interferon alfacon-1), encoded by SEQ ID NO: 2, novel tertiary structure (protein)
chain: MCDLPQTHSLGNRRALILLAQMRRISPFSCLKDRHDFGFPQEEFDGNQFQKAQAISVLHEMIQQTFNLFSTKDSSAAWDESLLEKFYTELYQQLNDLEACVIQEVGVEETPLMNVDSILAVKKYFQRITLYLTEKKYSPCAWEVVRAEIMRSFSLSTNLQERLRRKE
modifications: Amino acid sequence of recombinant interferon
cell viability, time dependent effect (A549 tumor cells): apparent for A549 cells for only about the first 3 days of treatment
tolerability: signs of toxicity or weight loss [1]: no signs of toxicity or weight loss
cell viability, time dependent effect (SW620 tumor cells): strongly decreased cell viability of SW620 cells in a time-dependent manner
beta-catenin protein level [2]: Decrease in beta-catenin protein level in the SW480 cells was obvious
beta-catenin protein level ([3]; 48 hr): dramatically decreased
beta-catenin protein level ([3]; 72 hr): Further decrease
level of apoptosis-related molecular markers (procaspase-3, procaspase-8, PARP, cleaved caspase-3, cleaved caspase-8) [4]: neither of the interferons, IFN alpha-2b nor rSIFN-co, caused any reduction in the level of procaspase-3 or procaspase-8 or PARP, or induced any enhancement in the level of cleaved caspase-3 or cleaved caspase-8
level of apoptosis-related molecular markers (procaspase-3, procaspase-8, PARP, cleaved caspase-3, cleaved caspase-8) [5]: neither of the interferons, IFN alpha-2b nor rSIFN-co, caused any reduction in the level of procaspase-3 or procaspase-8 or PARP, or induced any enhancement in the level of cleaved caspase-3 or cleaved caspase-8
TV (mm^3, mean ± SD) (D0) [6, 8]: 130 ± 26 mm^3
TV (mm^3, mean ± SD) (D28) [6, 8]: 416 ± 166 mm^3
TV (mm^3, mean ± SD) (D0) [6, 9]: 128 ± 39 mm^3
TV (mm^3, mean ± SD) (D28) [6, 9]: 541 ± 196 mm^3
TV (mm^3, mean ± SD) (D0) [6, 10]: 131 ± 36 mm^3
TV (mm^3, mean ± SD) (D28) [6, 10]: 570 ± 144 mm^3
tolerability: signs of toxicity ([7]; 0.05-0.15 mg/mouse i.t. every other day, 28 days): no signs of toxicity
change in average body weight ([7]; 28-day treatment period): Very little change
